{"source": "IntAct's records for PubMed 16154084", "parents": {"B1": {"name": "Interferon regulatory factor 3 (Homo sapiens), Q14653 (parent)", "chain": "MGTPKPRILPWLVSQLDLGQLEGVAWVNKSRTRFRIPWKHGLRQDAQQEDFGIFQAWAEATGAYVPGRDKPDLPTWKRNFRSALNRKEGLRLAEDRSKDPHDPHKIYEFVNSGVGDFSQPDTSPDTNGGGSTSDTQEDILDELLGNMVLAPLPDPGPPSLAVAPEPCPQPLRSPSLDNPTPFPNLGPSENPLKRLLVPGEEWEFEVTAFYRGRQVFQQTISCPEGLRLVGSEVGDRTLPGWPVTLPDPGMSLTDRGVMSYVRHVLSCLGGGLALWRAGQWLWAQRLGHCHTYWAVSEELLPNSGHGPDGEVPKDKEGGVFDLGPFIVDLITFTEGSGRSPRYALWFCVGESWPQDQPWTKRLVMVKVVPTCLRALVEMARVGGASSLENTVDLHISNSHPLSLTSDQYKAYLQDLVEGMDFQGPGES"}}, "data": [{"variants_of": "B1", "conditions": "with cbp_human CREBBP", "values": [{"variant": "E201A;E203A", "effect of a mutation on the interaction": "disrupting interaction"}, {"variant": "C371A;L375A;M378A", "effect of a mutation on the interaction": "disrupting interaction"}, {"variant": "L322A;P324A;I326A;V327A;L329A;I330A", "effect of a mutation on the interaction": "disrupting interaction"}, {"variant": "S221A", "effect of a mutation on the interaction": "disrupting interaction"}]}]}
